From the supplement of paper PMC9112550, “Optimization of the antimicrobial peptide Bac7 by deep mutational scanning” (BMC Biology, 2022)

System: Escherichia coli TOP10
Experiment: shrunken log2 fold change of peptide-encoding DNA abundance (4.5 h post-induction vs induction); higher = less antimicrobial activity (less host growth inhibition)
Conditions: time post-induction: 4.5 h; library: site-saturation at positions 5, 18, 19, 20
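Also: peptides expressed intracellularly from a pBAD plasmid library in pooled LB shake-flask culture, induced with 0.3% L-arabinose, DNA abundance read by NGS, three biological replicates, DESeq2 with apeglm shrinkage.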

Sequence | shrunken log2 fold change
RRIRVRPPRLPRPRPRPEPAPRP | 0.44
RRIRVRPPRLPRPRPRPEPMPRP | -0.0177
RRIRVRPPRLPRPRPRPERAPRP | 0.264
RRIRVRPPRLPRPRPRPERCPRP | 0.187
RRIRVRPPRLPRPRPRPEWHPRP | -0.158
RRIRVRPPRLPRPRPRPFALPRP | 0.0564
RRIRVRPPRLPRPRPRPFAPPRP | 0.0601
RRIRVRPPRLPRPRPRPFDCPRP | -0.0718
RRIRVRPPRLPRPRPRPFDDPRP | -0.175
RRIRVRPPRLPRPRPRPFDPPRP | -0.0153
RRIRVRPPRLPRPRPRPFEFPRP | -0.284
RRIRVRPPRLPRPRPRPFGNPRP | 0.0432
RRIRVRPPRLPRPRPRPFGSPRP | -0.137
RRIRVRPPRLPRPRPRPFIQPRP | -0.449
RRIRVRPPRLPRPRPRPFKHPRP | -0.0897
RRIRVRPPRLPRPRPRPFLHPRP | -0.13
RRIRVRPPRLPRPRPRPFLTPRP | -0.0925
RRIRVRPPRLPRPRPRPFMCPRP | -0.325
RRIRVRPPRLPRPRPRPFMPPRP | -0.355
RRIRVRPPRLPRPRPRPFQIPRP | -0.603
RRIRVRPPRLPRPRPRPFQMPRP | -0.333
RRIRVRPPRLPRPRPRPFQRPRP | 0.0825
RRIRVRPPRLPRPRPRPFSKPRP | -0.138
RRIRVRPPRLPRPRPRPFSMPRP | -0.0688
RRIRVRPPRLPRPRPRPFTMPRP | -0.368

Sequence | shrunken log2 fold change
RRIRVRPPRLPRPRPRPFTPPRP | -0.412
RRIRVRPPRLPRPRPRPFWFPRP | 0.149
RRIRVRPPRLPRPRPRPFWKPRP | 0.0154
RRIRVRPPRLPRPRPRPFWVPRP | 0.421
RRIRVRPPRLPRPRPRPFWYPRP | -0.308
RRIRVRPPRLPRPRPRPFYKPRP | -0.502
RRIRVRPPRLPRPRPRPFYTPRP | 0.508
RRIRVRPPRLPRPRPRPGAGPRP | 0.284
RRIRVRPPRLPRPRPRPGAKPRP | 0.189
RRIRVRPPRLPRPRPRPGASPRP | 0.583
RRIRVRPPRLPRPRPRPGDKPRP | 0.00318
RRIRVRPPRLPRPRPRPGFDPRP | 0.0552
RRIRVRPPRLPRPRPRPGFLPRP | 0.101
RRIRVRPPRLPRPRPRPGFSPRP | -0.101
RRIRVRPPRLPRPRPRPGGHPRP | 0.13
RRIRVRPPRLPRPRPRPGILPRP | -0.466
RRIRVRPPRLPRPRPRPGIMPRP | -0.000355
RRIRVRPPRLPRPRPRPGLPPRP | 0.113
RRIRVRPPRLPRPRPRPGNEPRP | -0.203
RRIRVRPPRLPRPRPRPGNKPRP | -0.286
RRIRVRPPRLPRPRPRPGQLPRP | 0.208
RRIRVRPPRLPRPRPRPGQMPRP | -0.0386
RRIRVRPPRLPRPRPRPGQQPRP | 0.026
RRIRVRPPRLPRPRPRPGRDPRP | 0.175
RRIRVRPPRLPRPRPRPGRMPRP | 0.172

Sequence | shrunken log2 fold change
RRIRVRPPRLPRPRPRPGSAPRP | 0.179
RRIRVRPPRLPRPRPRPGSMPRP | -0.00131
RRIRVRPPRLPRPRPRPGSPPRP | 0.187
RRIRVRPPRLPRPRPRPGSVPRP | -0.269
RRIRVRPPRLPRPRPRPGTQPRP | -0.183
RRIRVRPPRLPRPRPRPGVGPRP | 0.275
RRIRVRPPRLPRPRPRPGWGPRP | 0.621
RRIRVRPPRLPRPRPRPGWMPRP | 0.159
RRIRVRPPRLPRPRPRPGYYPRP | -0.248
RRIRVRPPRLPRPRPRPHAEPRP | 0.0163
RRIRVRPPRLPRPRPRPHAFPRP | 0.0978
RRIRVRPPRLPRPRPRPHCDPRP | -0.401
RRIRVRPPRLPRPRPRPHCWPRP | 0.0268
RRIRVRPPRLPRPRPRPHCYPRP | -0.234
RRIRVRPPRLPRPRPRPHDGPRP | 0.0377
RRIRVRPPRLPRPRPRPHEMPRP | -0.058
RRIRVRPPRLPRPRPRPHENPRP | -0.38
RRIRVRPPRLPRPRPRPHFGPRP | -0.0294
RRIRVRPPRLPRPRPRPHFYPRP | -0.173
RRIRVRPPRLPRPRPRPHKIPRP | -0.53
RRIRVRPPRLPRPRPRPHKSPRP | 0.0325
RRIRVRPPRLPRPRPRPHLIPRP | -0.352
RRIRVRPPRLPRPRPRPHMTPRP | -0.277
RRIRVRPPRLPRPRPRPHMWPRP | -0.49
RRIRVRPPRLPRPRPRPHPKPRP | 0.0188
